Results: the supplement of paper PMC9732359
± gives the uncertainty stated by the source.

Assay: protein stability index of a GFP-peptide fusion (yeast GPS) (PSI 1-4); higher = more stable; sorted into four equal gates, so the index is relative within each strain
In short: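 The protein stability index combines read frequencies across sorting gates, each weighted by its gate number and then summed. To obtain those frequencies, a pooled yeast library of GFP fusions to tiled 17-residue yeast protein peptides, on a plasmid also expressing Cherry, was grown to mid-log phase in leucine-free medium. The cells were sorted into four equal gates by GFP/Cherry ratio before plasmid amplification by PCR and Illumina sequencing.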

| Sequence | protein stability index (doa10∆) | protein stability index (pdr5∆) | protein stability index (san1∆) | protein stability index (ubr1∆) |
| --- | --- | --- | --- | --- |
| EIEIEGVMSLLQKSSKS [YAR002W/NUP60] | 2.99 ± 0.11 | 3.05 ± 0.16 | 3.26 ± 0.09 | 3.25 ± 0.072 |
| SLKNDLPQFRSSIQESL [ECM29] | 2.9 ± 0.076 | 2.92 ± 0.07 | 3.22 ± 0.077 | 3.07 ± 0.087 |
| EEAKEESDDDMGFGLFD [RPP1A] | 3.09 ± 0.053 | 3.15 ± 0.061 | 3.22 ± 0.028 | 3.26 ± 0.045 |
| AAKLRTLDYAERHGYIR [RPL2A] | 3.38 ± 0.11 | 3.27 ± 0.14 | 2.9 ± 0.16 | 3.37 ± 0.13 |
| LQPLEEGLIIDTDKLPI [SIN4] | 2.73 ± 0.097 | 2.79 ± 0.074 | 2.75 ± 0.066 | 2.96 ± 0.061 |
| STKSNKAKNPLTHSTPK [RPL8B] | 2.33 ± 0.069 | 2.83 ± 0.059 | 2.94 ± 0.058 | 2.73 ± 0.071 |
| VVEDKPLLSKKERLVRD [SMB1] | 1.14 ± 0.063 | 1.2 ± 0.043 | 1.21 ± 0.13 | 1.49 ± 0.056 |
| STVKVSDLNLTDRQKKL [YLR018C/POM34] | 2.9 ± 0.063 | 2.75 ± 0.048 | 2.79 ± 0.047 | 2.76 ± 0.037 |
| VVGRTTRSNPPFKRKML [REC8] | 2.59 ± 0.06 | 2.77 ± 0.059 | 2.71 ± 0.055 | 2.75 ± 0.054 |
| NNIDQSLILKESGSTPI [YAR002W/NUP60] | 1.85 ± 0.085 | 1.78 ± 0.1 | – | 1.61 ± 0.064 |
| VNCLELLINTNFNKFFK [PCI8] | 1.77 ± 0.045 | 1.88 ± 0.048 | 1.96 ± 0.065 | 1.99 ± 0.064 |
| LQRTILNRIINHMLIDS [RGR1] | 2.76 ± 0.057 | 2.4 ± 0.081 | 2.21 ± 0.093 | 1.72 ± 0.066 |
| SDLKGKLSSAENANADL [YIL149C/MLP2] | 3.37 ± 0.15 | 3.35 ± 0.1 | 3.17 ± 0.12 | 3.17 ± 0.071 |
| ELLDQVTLGREGQIIQR [CDC53] | 3.07 ± 0.14 | 3.73 ± 0.18 | – | 3.21 ± 0.19 |
| TSSNIVLETHESGIKPY [RPT6] | 2.55 ± 0.097 | 2.76 ± 0.061 | 2.68 ± 0.099 | 2.47 ± 0.061 |
| SAESWGTGRAVARIPRV [RPL4A] | 3.06 ± 0.19 | 3.51 ± 0.28 | 2.65 ± 0.21 | 2.75 ± 0.27 |
| KRNGDEVYTLVDSQGLP [ARP7] | 3.35 ± 0.17 | 3.34 ± 0.11 | 2.98 ± 0.14 | 3.21 ± 0.097 |
| PQMFLNQQAQARQQVAQ [GAL11] | 2.66 ± 0.15 | 2.46 ± 0.13 | 1.9 ± 0.27 | 1.7 ± 0.091 |
| TFGIRRNEKIAVHVTVR [RPL11A] | 2.17 ± 0.082 | 1.68 ± 0.076 | 2.12 ± 0.081 | 2.21 ± 0.072 |
| DSHKRIPDMSKNVELGW [SNU114] | 3.06 ± 0.17 | 3.28 ± 0.11 | 2.79 ± 0.13 | 3.41 ± 0.097 |
| FEPASRLQGIKLLDNIQ [COR1] | 2.87 ± 0.064 | 2.98 ± 0.063 | 2.64 ± 0.06 | 2.54 ± 0.046 |
| LYSYLIKENFFERIMIL [YJL039C/NUP192] | 1.48 ± 0.063 | 1.42 ± 0.073 | 1.49 ± 0.2 | 1.26 ± 0.11 |
| HATVVPPEEFSNTIDEL [SRB7] | 3.19 ± 0.071 | 3.25 ± 0.09 | 2.89 ± 0.1 | 3.02 ± 0.089 |
| QESSSTLSTHSTTTSVN [SIN4] | 3.04 ± 0.04 | 3.12 ± 0.037 | 3.12 ± 0.028 | 3.132 ± 0.029 |
| YSSVAGTVSRVNRLLSV [RRP4] | 1.74 ± 0.036 | 1.77 ± 0.038 | 1.82 ± 0.053 | 1.8 ± 0.03 |
| EAEIECFDSTTGRDAGF [RRP40] | 3.15 ± 0.17 | 3.12 ± 0.17 | 3.28 ± 0.095 | 3.2 ± 0.12 |
| SASLHLNYGVYLNGTLI [RET1] | 2.65 ± 0.16 | – | 3.09 ± 0.1 | 3.18 ± 0.092 |

| Sequence | protein stability index (doa10∆) | protein stability index (pdr5∆) | protein stability index (san1∆) | protein stability index (ubr1∆) |
| --- | --- | --- | --- | --- |
| EDALYLGKRSILAAAHR [PRE2] | 3.42 ± 0.062 | 3.33 ± 0.06 | 3.16 ± 0.067 | 3.31 ± 0.051 |
| LERYYKEQADIYAKQQE [ARP7] | 3.29 ± 0.29 | – | – | 3.42 ± 0.14 |
| EQVAEEAAAAEEGEEEE [RPS0B] | – | 3.33 ± 0.26 | – | – |
| IPSGNVWNYTFMGTAFN [PRP8] | 2.76 ± 0.11 | 2.47 ± 0.16 | 2.74 ± 0.095 | 2.93 ± 0.068 |
| PQTMEHYKQQIAVLIEL [YCS4] | 3.01 ± 0.083 | 3.05 ± 0.12 | 2.92 ± 0.11 | 2.52 ± 0.066 |
| DRRAQRVAEKRDALLKE [RPL19A] | 3.19 ± 0.12 | 3.25 ± 0.097 | 3.07 ± 0.15 | 3.44 ± 0.067 |
| DELRKQELISKAFTNWN [ISW2] | 2.04 ± 0.065 | 2.45 ± 0.078 | 2.4 ± 0.089 | 2.23 ± 0.067 |
| AKNRILASKIKQYERLR [RRI1] | 2.48 ± 0.052 | 2.4 ± 0.049 | 2.37 ± 0.051 | 2.58 ± 0.036 |
| YVNYEISTAKAWGALIT [YML103C/NUP188] | 1.32 ± 0.052 | 1.43 ± 0.049 | 1.3 ± 0.073 | 1.4 ± 0.06 |
| FSKAIEWDMLNVEEEQI [BRR2] | 2.71 ± 0.078 | 3.03 ± 0.11 | 2.54 ± 0.07 | 2.93 ± 0.06 |
| DIKVLKRQLIKERNQKF [YIL149C/MLP2] | 2.7 ± 0.084 | 2.62 ± 0.084 | 2.5 ± 0.091 | 2.41 ± 0.039 |
| RAQVLSLGDGTNYYLTT [CSL4] | 2.6 ± 0.061 | 2.66 ± 0.05 | 2.79 ± 0.048 | 3.08 ± 0.072 |
| CLSPGAFLSKVPEFFQT [SRP14] | 2.73 ± 0.098 | 2.44 ± 0.13 | 2.87 ± 0.17 | 2.6 ± 0.068 |
| SEAEQIDTSKNLENMSI [YCG1] | 3.3 ± 0.073 | 3.28 ± 0.068 | 3.17 ± 0.068 | 2.99 ± 0.069 |
| TLNPKTGHLFLKIIHTS [PRP8] | 2.44 ± 0.047 | 1.91 ± 0.048 | 1.77 ± 0.076 | 1.84 ± 0.048 |
| HSRKMNLTRGINLRKVA [RPT6] | 1.26 ± 0.075 | 1.36 ± 0.05 | 1.3 ± 0.11 | 1.2 ± 0.043 |
| HLDNSKSVFSSAGLDSA [RPN1] | 2.58 ± 0.064 | 2.69 ± 0.043 | 2.25 ± 0.063 | 2.15 ± 0.055 |
| LKLLAKSHVLLATPVQF [BRR2] | 1.89 ± 0.068 | 1.4 ± 0.058 | 1.36 ± 0.11 | 1.44 ± 0.07 |
| HPFIPLLKEKPNALKPL [RRP6] | 2.54 ± 0.065 | 2.7 ± 0.067 | 2.94 ± 0.076 | 2.71 ± 0.053 |
| AISKKDLEEVKRFQVLY [SEC65] | 2.6 ± 0.16 | 3.02 ± 0.1 | 2.8 ± 0.29 | 2.3 ± 0.13 |
| SSHLSDNDFIINDFKKI [POP5] | 3.06 ± 0.077 | 2.73 ± 0.067 | 2.75 ± 0.055 | 2.74 ± 0.036 |
| SKPAFSFGAKSDEKKDG [YJL041W/NSP1] | 3.25 ± 0.17 | 2.97 ± 0.13 | 3.25 ± 0.12 | – |
| DVQARRQFVSNVRSVIR [RPP1] | 2.02 ± 0.15 | 2.5 ± 0.12 | 1.65 ± 0.23 | 2.44 ± 0.13 |
| HPTIYESLPQYVDFVPM [POP4] | 1.72 ± 0.045 | 2 ± 0.048 | 1.81 ± 0.056 | 1.78 ± 0.051 |
| AILQEKILSILNRSHFA [ECM29] | 1.87 ± 0.05 | 2.15 ± 0.052 | 2.27 ± 0.054 | 2.35 ± 0.051 |
| LGVKSRLLEKSELPDIY [SNF2] | 3.12 ± 0.13 | 3.42 ± 0.15 | 3.05 ± 0.082 | 3.11 ± 0.19 |
